This data set is described as follows: soluble fraction after stress (log2 fold change); higher = more stays soluble; pooled small domains, quantitative proteomics. The note with it: stress: pH 4. The gist of the method:
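Custom libraries of small protein domains were pooled and measured with high-throughput quantitative proteomics after pH 4 stress. The read-out is the fold change in the amount of each domain that stays soluble after the acid stress, taken as a measure of aggregation propensity. Fold changes are on a log2 scale, and higher values mean more of the domain stayed soluble.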

Regarding “HMRLSPTMVETLIAMLNRNAYPAYENNSRTFASLEERGLIQPDIEGNWSLTDTGHQTALKLLK”, the “soluble fraction (log2)” value was 0.0279.

With “HMRLSVRQRMSDVLGALKTQAFVEFTQLFRPQEGRMGVTVTFSAILELLREGLIEIVQSEPFAPIHVRAGA”, the “soluble fraction (log2)” value turned out to be 0.22.

On to “HMRMDKHLWLSLLRLINEGSAEELQTKKDELLQSLERLRITRGPVRGDVLRVVRLIDEELVSRLHLDQR”, for which the “soluble fraction (log2)” value is -0.697.

Consider “HMRMTKPLPFDLAAFRNEFGFTKSIIMQEVGVSRHIYDNVERTNATPPEFYDDFVSFFQRHGQ”, for which the “soluble fraction (log2)” value was -0.203.

Turning to “HMRMTPRQALDDLIREREETYAAVSRLLGRNTAYIQQYIKRGTPARLDQSDIAQLALHFDVPAKLLGGKE”, the “soluble fraction (log2)” value was at least 0.43.

As to “HMRMTTEQLMSFLKQHFPQVADNFTVRISDEGRLSVEMPVNDKHLRPGGTVSGPSMFALADVAFYLAILQ”, the “soluble fraction (log2)” value was -0.349.

For the sequence “HMRNERDRQLYAAMEKLKAEYREALYLVYFENMSYRDAAAVMAQTEKQISNLVYRGKQSLKTILEQEGF”, the “soluble fraction (log2)” value was -0.867.

On to “HMRNGGHTVYRNNGSLFIVVRDGDKLESVASEFRVSPKKLIKYNDLDIHSNVKTGDMIYIRPKA”, for which the “soluble fraction (log2)” value was -0.124.

As to “HMRNLYEILGVSKDAPQGEIKSAYRKLAKTYHPDLNPNNEKAAELFKEINQAYEVLSDETKRRHYDQFGEA”, the “soluble fraction (log2)” value is at least 0.43.

Take “HMRNMTDYLTIVRAVYGGLSQRQAATTYHVSRNTVSLLIRHAKNQGWLTVEDLSRADAAAFSPA”: the “soluble fraction (log2)” value was -0.0738.

For “HMRNMVSVLDHIEGIGPKRRQLLYEHYGELEKIKEASVEEMAGLDGMNRPAAEAVYNFFLAQRNL”, the “soluble fraction (log2)” value is -0.308.

In the case of “HMRNSSLQTDLELRAYVIDGLNHFWTPEEIAGRWSLAHPDRPVSFATIYRHIKRKLLPGIEPKTHLRRRGK”, the “soluble fraction (log2)” value was at least 0.43.

Take “HMRPEARAASLSDEERKIFDYLAANGEKTIDNISVAVKMSAADILKNITLMSAKGLVYMPSAGRYGVKGN”: the “soluble fraction (log2)” value is 0.0795.

Take “HMRPNREKDMADLEKLAPFLLQMLTNYAQMTGDEKPLNAFITRFGYAAQIRDIQDFFMGPWHPA”: the “soluble fraction (log2)” value is -0.24.

With “HMRPQIAIDAIQALSLIMRTENKEDPTYLESRRVVSDAVAKRLSLNPTDLNRAWSRAPRDHQIAVLSALTQ”, the “soluble fraction (log2)” value was -0.184.

In the case of “HMRPRGTRLPTGWTPSSDALDWTKAEKPGLDPLQTLEKFRDYWTAQPGQKGVKTDWDATWRNWVRREIP”, the “soluble fraction (log2)” value is 0.0989.

Regarding “HMRPSGTAGILRYLSSGAIRGIGATTAQRLVSEFGEKTLDVMENEPERVAMLKGISKSKAEDFSLQLKQS”, the “soluble fraction (log2)” value was 0.0932.

Consider “HMRPTAWEQVSRHIDQHGSIGNTEVRKAMETENVLAASKQIKKWLEQGLLIILNPTAGTRARRYSKPNM”, for which the “soluble fraction (log2)” value was -0.0247.

On to “HMRPTDVLNYDESMRILNFSNNRVGFKHLMDAKGIEQVIFKNRKIGYRKSEILALKSELEAEQK”, for which the “soluble fraction (log2)” value is -0.0346.

For the sequence “HMRPYAYGTGRRKSSTARVHLIPNGSGSITINGRTLDEYFGLETLKLIVRQPLAATETAEKFDVEATVV”, the “soluble fraction (log2)” value is -0.509.

As for “HMRQDEKTLLYWIGAQVKREGKLIKTSTAQYLVEKTGTDMENLEKELEKLFAYTLDEKEITPAAIDEI”, the “soluble fraction (log2)” value is -1.21.

Turning to “HMRQIRELFRLKFGSLLPTSDRQIAAQLGVARSTVAEYLERARAAGLSWPLPLDLSDADLEERLFA”, the “soluble fraction (log2)” value is at least 0.43.

Turning to “HMRQMSEELQSAKEALEDRRTQEKAVLLLMEHRNISNDEAHRLLRKLAMDQGKRLPEVARALVSMAGVL”, the “soluble fraction (log2)” value was -0.203.

Take “HMRQSKMREAILAAVSAQKLEISDLHVWRIGEQRYAAIIGLATTQAESVSALRDSLAQMDKLVHLTIDQ”: the “soluble fraction (log2)” value was -1.16.

Turning to “HMRQTGWVTADSLNVRARPSLQAERVEKVTYGQQVQIMFKQGQWYQIATENGKIGWVSSEYIAAVSP”, the “soluble fraction (log2)” value is 0.0725.

Turning to “HMRRELDSEHKRQEILFAAKRLLLAEGYDATSMSRLAKEAGVAPNTLYWYFKDKDELLIAILDELVAE”, the “soluble fraction (log2)” value was -1.09.

Regarding “HMRRGKLGMASRLEQIPGIGPKKRKALLKAFGNSIDAIKSAPVEDLMKVKGINLVLAESIKEL”, the “soluble fraction (log2)” value amounted to 0.374.

For the sequence “HMRRMTEEQSKLFQGLVSIVQTTLVADMEKGAVTPLLIAEKVDFVADNLYPGKDIDRKEAVAELIRRFSLW”, the “soluble fraction (log2)” value is -0.875.

As to “HMRRSKQERQQAIKTLISNEQIQRQEDLVRKLNEAGWEVTQATISRDITEMQLVKVPLPTGGFAYAVM”, the “soluble fraction (log2)” value was -0.31.

Take “HMRRSKVMLESILDEIPQMGQARRAALLEQFGSVAALRKASLAEIAMTPGIGEKIAVIIFEYLQKSSH”: the “soluble fraction (log2)” value was -0.067.

On to “HMRRTEKEIEQDVMRAIATIISEKGISSVTIKEVSNLSKTDVIVLERRFKNDEGLIKAYTSQ”, for which the “soluble fraction (log2)” value is 0.0814.

Consider “HMRSFADEGTVEEWIKQAIRENEAAVADYRKGKETAVKFLMGQVMRLSKGEANPADLEDKIKAKLD”, for which the “soluble fraction (log2)” value was found to be 0.025.

As to “HMRSFGTVAQARGRWKAFYVGPDKRRHTPGVTFSNPIRAQGWLAQELTLIELGQWTPPAQRREKAEVAS”, the “soluble fraction (log2)” value was -0.43.

For the sequence “HMRSIVETLTDRELEIFQLIGNGFSTGEIARRLNLSPHTIETHRKNIKDKLGLSSGSELNKQAIQWVLSS”, the “soluble fraction (log2)” value was -1.15.

Regarding “HMRSKTSYAVWTPIQIDAGSQMQALQSKGFNTVLMEGGISVGIRSDKAQAQALLNRLQGAGFTGQLREVN”, the “soluble fraction (log2)” value came to 0.259.

In the case of “HMRSLATFEEEKIALRFWNYLQSEGIKSTLEEEGPRDWVIWVIDEEKIPSATQSLEKFNLNPDDPAFSN”, the “soluble fraction (log2)” value is -0.137.

For the sequence “HMRSLVDRSVQAVTDHIRENALRVGDSLPGEAYFATSLGVSRAVMREAFGALAALRVIDVGNGRKPRVGAI”, the “soluble fraction (log2)” value was -0.438.

Turning to “HMRSMEKRLTAKVKRVQEGVQAKSQAGEQPFEVVKLMQRFPKLMQFGKHAEAETVLDKALELLGEE”, the “soluble fraction (log2)” value was -0.373.

In the case of “HMRSQLALVVRTGESQRLDNFLVNNLAWKSRNRLQGLIREGLVTVNGEKTKASRRVHLDDLVEIHL”, the “soluble fraction (log2)” value is -0.0501.

For the sequence “HMRSTIYEFTVPPGQLESIRLDVYITSFVENATRSKVQEAIKQGYVWVNGKHEKASYTMLPGDKIYIELPI”, the “soluble fraction (log2)” value is -0.497.

For “HMRSVEVAAEPGMVLEDRQTGFVGAVVAVEKSGGTHLVVLEDRHGLRRGFPLGPGFWLEGRPVVLAPPP”, the “soluble fraction (log2)” value was -0.141.

As to “HMRTANREKRIEASVKMMKAGYPVGYIIARVFMYEGWEEDYRQLLIYLSEKIPKDVSNPITFEVIS”, the “soluble fraction (log2)” value is -0.317.

On to “HMRTEGNLGAKVRVLRRSQGMTQAELARRLGISPSYLNLIEHNRRSFTADLLVKLAKILPVNLKT”, for which the “soluble fraction (log2)” value was determined as 0.04.

Turning to “HMRTITYSITPAHAGMSVERYLKQQHGYSTRTLVKLKHYPQGLQLNGQHARTVDLLQAGDTLAVTFLD”, the “soluble fraction (log2)” value stood at 0.145.

As to “HMRTLSAGVAGRLRADILNGLLEPGRRLGMAELTERYGAGMSPVREALSRLVGEGLVQSEGQRGFRVA”, the “soluble fraction (log2)” value worked out at 0.199.

For the sequence “HMRTMFGQRLRLARKRAGLSMQALADRVTPSVSAQAISKYEADQMMPSSSVLVGLGKALGVSLDFLVGGQ”, the “soluble fraction (log2)” value was -0.238.

In the case of “HMRTNVDISPKILEWVLSQVRNRTTNDVIETIQIWIKGEKPPTFNQVEKISKATGVPLGYFFLKTPPVED”, the “soluble fraction (log2)” value is -0.684.

In the case of “HMRTPLTGREEQVATLIGRGMTNSEIAESLSVDESTVKTHIGSILRKVHLRDRLQVALWFHGLPIE”, the “soluble fraction (log2)” value is -0.354.

As for “HMRTTYKTRLETLLAGPMSAGDRRFASSLLDFYNRKNRLTPGRARFVAQLEDRYSAEALAARQG”, the “soluble fraction (log2)” value is -0.00949.

Take “HMRTVEQFQIRKIYAISNALGISDSRADEDELHVLVSGLTGKDSIKELTYREASVVIERLEELQ”: the “soluble fraction (log2)” value was -0.62.

“HMRVDDITDTILNVLKEQGGFISVTDKSSPETINKLFGVSKKTYKKAIGAIYRKKLIIIEDDGIRLNS”: the “soluble fraction (log2)” value was -0.219.

In the case of “HMRVDRSALDSIPGVGPGRKRTLLHHFGSARAVEASGLADLESIRGISKALARKIYDFFHPE”, the “soluble fraction (log2)” value was found to be 0.161.

For “HMRVELVVVPELRQQLLPEARELANSAGLQLRVRGQSPADETRTIVVTQSPAAGTRVAARSIVLVE”, the “soluble fraction (log2)” value worked out at 0.338.

“HMRVPTVIGMDEGTAKATLANASLKSNIVYESDETKENGKVLSQGIEQNKEVKAGTTVEIKVNKIE”: the “soluble fraction (log2)” value was 0.22.

Consider “HMRVTEVSYDKFLDMLSGGQVTVVELQENERELYFKAADENGAERIYSTGVFPDADLQKRLSESGVTF”, for which the “soluble fraction (log2)” value was -1.19.

Turning to “HMRYLHTMIRVSDLEESLNFFKLLDIHEVSRKENEQARFTLVFLSATGDEKLVENAKSPLIELTFN”, the “soluble fraction (log2)” value is -0.471.

Regarding “HMRYLMPDLVNRRYEPVRSLLEARGIRFGNVIFEPYEGLPPGIVLRQDPPAGHPLPRRRTVSLVVSGPGGR”, the “soluble fraction (log2)” value worked out at 0.109.

With “HMRYQIAEARKLRDITQAELAEKMGTTQQTIQRYETNQVNIRMDKMIEMSEILNVSLAYLLGMSSSPEL”, the “soluble fraction (log2)” value was determined as 0.122.

Turning to “HMRYVVQVATFSSKNNAIRAADDLAGFVVVSNGYYRVRTGPYADRGEANAALAKARKAGYTDAFVDTS”, the “soluble fraction (log2)” value stood at 0.0704.

As for “HMSAAYVYVTGTRVNQRDGPSTFDRVMGVLVEGTRVQLLRDQGQWAQIRSDLGTGWLSSGFLSRNG”, the “soluble fraction (log2)” value was 0.0158.

Regarding “HMSADKAEAAEASLKSFNLRLQAAAMEAGKTFAPVTADQYAEYKAAWGTYIRKGIEGLSESEKKTINVG”, the “soluble fraction (log2)” value is -0.167.

As to “HMSAETREELVGREGVSLTDLRPSGFALFGQEKIDVVSESEFIEEGTSVRIVSVEGSRHIVRAKR”, the “soluble fraction (log2)” value was -1.24.

On to “HMSAISSARKEKIIEYLTDHGSARSSEIAEYVDLRPSRVRDYLGELVREDIVVAEGANRNRTYRLK”, for which the “soluble fraction (log2)” value stood at 0.409.

For “HMSAPGYRAVYPGMLESERQTAYELLSSSGFDVKINTSSGELEVTTDRYHEARMVMASQNIPK”, the “soluble fraction (log2)” value was -1.18.

Turning to “HMSAPVFRITPAGVVVNGLKRSDILTLTRIDGAMNTLPHNAGEVLVSTEGLAKGVYVITAGGKSLKFLV”, the “soluble fraction (log2)” value was found to be 0.00157.

Take “HMSAQPMEYSRFYSDVTQGRVAEVEIEGREINGRLSTGERFKTFSPETDNKALIGHLLDNGVVIEGKPP”: the “soluble fraction (log2)” value worked out at 0.0726.

As for “HMSASEKLFEARKNLNIVNVLGKNPVDRYDIVKILKHGDHYHIYDSKGNEGITYTNPKSLYPEAEFGEYQG”, the “soluble fraction (log2)” value was -0.228.

Consider “HMSASTGTVSYKSGATTVWNSPSWHQVKRYVTFGDTVQLLGKTVDQNGATWYKVGDNQWIPELYLNVAG”, for which the “soluble fraction (log2)” value is -0.486.

On to “HMSATEPVHFDPNKSPEDMTVEELQAGILAKMANNGPVSDQMKKTVNENIWHDSLVNWLKSF”, for which the “soluble fraction (log2)” value is -0.0828.

Source of the values: the domain aggregation screens of Martell et al. (2025).
